# In article PMC1919377, “Cation induced differential effect on structural and functional properties of Mycobacterium tuberculosis α-Isopropylmalate synthase” (BMC Structural Biology, 2007):
# B1: isolated TIM barrel domain of Mycobacterium tuberculosis α-isopropylmalate synthase (Arg47 to Phe457) (domain or fragment)
# chain: RPFAEEVEPIRLRNRTWPDRVIDRAPLWCAVDLRDGNQALIDPMSPARKRRMFDLLVRMGYKEIEVGFPSASQTDFDFVREIIEQGAIPDDVTIQVLTQCRPELIERTFQACSGAPRAIVHFYNSTSILQRRVVFRANRAEVQAIATDGARKCVEQAAKYPGTQWRFEYSPESYTGTELEYAKQVCDAVGEVIAPTPERPIIFNLPATVEMTTPNVYADSIEWMSRNLANRESVILSLHPHNDRGTAVAAAELGFAAGADRIEGCLFGNGERTGNVCLVTLGLNLFSRGVDPQIDFSNIDEIRRTVEYCNQLPVHERHPYGGDLVYTAFSGSHQDAINKGLDAMKLDADAADCDVDDMLWQVPYLPIDPRDVGRTYEAVIRVNSQSGKGGVAYIMKTDHGLSLPRRLQIEF
# notes: also called catalytic TIM barrel domain; Band I; not shown: histidine tag, N-terminal, cleaved
# Target: the molecule itself
# Experiment: cross-linking
protein,measurement,value
B1,stoichiometry N,2
